“Also recorded” adds a separate entry of the source. Like-named read-outs stand apart in the source and are kept apart here.
How the values were obtained:
[1] = system: recombinant type II pullulanase Sumo-PulPy; assay: Effect of metal ions and chemical reagents on the enzyme activity of Sumo-PulPy; format: biochemical, Pyrococcus yayanosii CH1; details: for Relative enzyme activity (%): pH 6.6; for effect on the enzyme activity of Sumo-PulPy (in words): reagent added to enzymatic reaction system
[2] = Optimum pH and pH stability of the enzyme; format: biochemical; details: for optimum pH: 100 mM potassium phosphate buffer pH 5.8-8.0; for pH stability / pH tolerance: between pH 5.8 and 8.0
Protocol: (§1) The determination of the activity of recombinant type II pullulanase Sumo-PulPy was adopted the 3,5-dinitrosalicylic acid (DNS) method. The specific steps were as follows: reacting 100 μL reaction system (10 μL potassium phosphate buffer with different pH with a final concentration of 100 mM, 50 μL pullulan with a final concentration of 3% and 40 μL enzyme solution) at a certain temperature for 15 min, adding 100 μL DNS reaction solution, boiling in a water bath for 6 min, immediately cooling to room temperature with running water, adding and diluting with distilled water, mixing well, and determining […]. One enzyme activity unit (U) was defined as the amount of enzyme required to release reducing sugar correspond to the reduction capacity of 1 μmol glucose per minute under assay conditions.
Determination of the optimum pH: the purified Sumo-PulPy was subjected to enzymatic reaction in 100 mM potassium phosphate buffer (pH 5.8-8.0) at 95° C.
Determination of the pH stability of the enzyme: the enzyme solution was added into 100 mM potassium phosphate buffer (pH 5.8-8.0) and disposed at 4° C. for 4 h, and then the enzymatic reaction was performed at pH 6.6 and 95° C. to determine the remaining enzyme activity of Sumo-PulPy. […] Except for a 12% loss of enzyme activity after disposal at pH 5.8 for 4 h, the rest has almost no effect on the enzyme activity (FIG. 4).

[3] = DNS method enzyme activity and kinetic parameters (Lineweaver-Burk) with pullulan as substrate; format: biochemical; details: for Km / Vmax: pullulan 1.25-40 mg/mL, optimum conditions
Protocol: as §1
Using different concentrations of pullulan (1.25, 2.5, 5, 10, 20, and 40 mg/mL) as the substrate, the enzyme activity was determined under the optimum conditions, the corresponding reaction rate was calculated, and Km value and Vmax were obtained by Linewear Burk method using Michaelis-Menten Equation.

[4] = format: biochemical; details: for optimum temperature: potassium phosphate buffer, 75-100° C.
Protocol: as §1
Determination of the optimum temperature of the enzyme: the enzymatic reaction was performed in a potassium phosphate buffer (pH 6.6) at 75-100° C.
Determination of the thermal stability of the enzyme: the enzyme solution with the same amount of enzyme was placed under the conditions of 80° C., 90° C., 95° C. and 100° C., respectively, and disposed for 2 h, 4 h, 6 h, 8 h and 10 h, respectively, and the enzymatic reaction was performed at pH 6.6 and 95° C. to determine the remaining enzyme activity of Sumo-PulPy.

[5] = Analysis of degradation products of Amylose from potato (MALDI-TOF/TOF); format: biochemical; details: 1% Amylose from potato, 95° C., 6 h
Protocol: (§2) The sample processing procedure was as follows: an appropriate amount of pure enzyme solution was mixed well with 1% pullulan and 1% Amylose from potato respectively, enzymatically hydrolyzed at 95° C. for 6 h, cooled to room temperature and then centrifuged at 12000 r/min for 20 min. And the supernatant was taken. The enzymatic hydrolysis products of pullulan and Amylose from potato were analyzed using high performance liquid chromatography (HPLC, conditions: Hpersil NH2 amino column (4.6×250 mm), column temperature 40° C., mobile phase (acetonitrile:water=67:33), flow rate 1.0 mL/min, injection volume 20 μL) and MALDI-TOF/TOF matrix-assisted laser […]/ionization tandem time-of-flight mass spectrometer respectively.

[6] = Analysis of degradation products of pullulan (HPLC); format: biochemical; details: 1% pullulan, 95° C., 6 h
Protocol: as §2

[7] = reagent 2 mM, 100% = no reagent, 95° C.
[8] = reagent 1%, 100% = no reagent, 95° C.

For [Ca+2].[Cl-].[Cl-] [CaCl2], which “Relative enzyme activity (%)” value [1, 7] is on record?
Its value is 71.3 ± 3.5%.

For [Cl-].[Cl-].[Co+2] [CoCl2], which “Relative enzyme activity (%)” value [1] is on record?
Its value is 150.0 ± 4.8%.

Which “Relative enzyme activity (%)” value [1, 7] does the source give for [Cl][Cu][Cl] [CuCl2] here?
The value was 45.9 ± 3.5%.

For O[C@@H](CS)[C@@H](O)CS [DTT], which “Relative enzyme activity (%)” value [1, 8] is on record?
Its value is 337.2 ± 4.7%.

For O=S(=O)([O-])[O-].[Fe+2] [FeSO4], which “Relative enzyme activity (%)” value [1, 7] is on record?
The value was 183.1 ± 4.0%.

With [Cl-].[K+] [KCl] as the molecule, how does the “Relative enzyme activity (%)” value [1, 7] read?
The value was 104.1 ± 3.0%.

And the “effect on the enzyme activity of Sumo-PulPy (in words)” value [1]?
The value was “weakly promote”.

Which “Relative enzyme activity (%)” value [1, 7] does the source give for [Cl-].[Cl-].[Mg+2] [MgCl2] here?
The value was 94.9 ± 3.4%.

For [Cl][Mn][Cl] [MnCl2], which “Relative enzyme activity (%)” value [1, 7] is on record?
Its value is 91.2 ± 2.9%.

For [Cl-].[Na+] [NaCl], which “Relative enzyme activity (%)” value [1] is on record?
The value was 81.1 ± 4.2%.

For O=S(=O)([O-])[O-].[Ni+2] [NiSO4], which “Relative enzyme activity (%)” value [1, 7] is on record?
The value was 73.3 ± 3.3%.

Which results are given for CCCCCCCC/C=C\CCCCCCCC(=O)OCCOCC(OCCO)C1OCC(OCCO)C1OCCO (centres unmarked) [Tween-80]?
Relative enzyme activity (%) [1, 8]: 110.8 ± 2.9%; effect on the enzyme activity of Sumo-PulPy (in words) [1]: weakly promote

With O=S(=O)([O-])[O-].[Zn+2] [ZnSO4] as the molecule, how does the “Relative enzyme activity (%)” value [1, 7] read?
Its value is 0%.

Which “Relative enzyme activity (%)” value [1, 8] does the source give for OCCS [β-mercaptoethanol] here?
The value was 157.4 ± 3.0%.

Which “Relative enzyme activity (%)” value [1, 8] does the source give for Triton X-100 here?
Its value is 111.1 ± 3.6%.

And the “effect on the enzyme activity of Sumo-PulPy (in words)” value [1]?
Its value is “weakly promote”.

B1: Δ28N+Δ791C: combined truncation mutant of PulPy: first 28 N-terminal amino acids and amino acids after position 790 deleted (SEQ ID NO:3) (protein)
chain: MGHHHHHHMSDSEVNQEAKPEVKPEVKPETHINLKVSDGSSEIFFKIKKTTPLRRLMEAFAKRQGKEMDSLRFLYDGIRIQADQTPEDLDMEDNDIIEAHREQIGGQRGSPKPLNVIIVWHQHQPYYYDPVQGIYTRPWVRLHAANNYWKMAYYLSKYPDVHATIDLSGSLIAQLADYMNGAKDIYQIITEKIAKGEPLTVEEKWLMLQAPGGFFDHTIPWNGEPVTDKNGNPIRDFWNRYTELKNKMLQAKAKYANLPLEEQKVAVTNEFTEQDYIDLAVLFNLAWIDYNYIMNTPELKALYEKVDEGGYTREDVRTVLKHQMWLLNHTFEEHEKINLLLGNGNVEVTVVPYAHPIGPILNDFGWEEDFDAHVKKAHELYKKYLGAGKVTPKGGWAAESALNDKTLEILAENGWQWVMTDQLVLQKLGIPYTVENYYKPWVAEFNGRKIYLFPRDHALSDRVGFTYSGMNQYQAVEDFINELLRIQKQNYDGSLVYVITLDGENPWEHYPYDGKLFLETLYKRLTELQRQGLIRTLTPSEYIKLYGDKANKLTPQMMERLDLTGDNVEALLKAQSLGELYDMIGVKEEMQWPESSWIDGTLSTWIGEPQENYGWYWLYLARKALMAQKDKMSQENWEKAYEYLLRAEASDWFWWYGSDQSSGQDYTFDRYFKTYLYEIYRLAGLEPPSYLYGNYFPDGEPYTIRALEGLGEGQVKEYSSMSPLAEGVSVYFDGEGVHFVVKGNLEKFEISIYEKGERVGNTFTLLQERPGELKYSLFPFSRDSVGLLITKHVVYRDGKAEIYAATDYENTEKVGEASVKQVDGGVEIVVPFDYIKTPEDFYFAVSTVKDGELEIITTPIELKLPMEVKGVP
modifications: Protein translated from synthetic DNA
Which “optimum pH” value [2] does the source give for B1 here?
Its value is 6.4.

And the “pH stability / pH tolerance” value [2]?
The value was “good pH tolerance”.

What about the specific enzyme activity [3] of the same molecule?
The specific enzyme activity was 32.18±0.92 U/mg.

What about the “specific enzyme activity relative to Sumo-PulPy” value [3] of the same molecule?
Its value is 5.99 times.

And the Km [3]?
Its Km is 6.63 ± 0.56 mg/mL.

And the Vmax [3]?
Its Vmax is 32.18±0.92 U/mg.

What about the “improvement of optimum temperature compared with Sumo-PulPy” value [4] of the same molecule?
Its value is 5 °C.

What about the “thermal stability at 100° C. compared with Sumo-PulPy” value [4] of the same molecule?
Its value is “slightly improves”.

What about the “remaining enzyme activity after heat preservation at 100° C. for 2 h” value ([4]; 2 h) of the same molecule?
The value was “greater than 60%”.

What about the optimum temperature [4] of the same molecule?
Its optimum temperature is 100 °C.

B2: Sumo-PulPy: thermophilic recombinant type II pullulanase from Pyrococcus yayanosii CH1 (SEQ ID NO:1) with His and Sumo tags, expressed in E. coli (protein)
chain: MGHHHHHHMSDSEVNQEAKPEVKPEVKPETHINLKVSDGSSEIFFKIKKTTPLRRLMEAFAKRQGKEMDSLRFLYDGIRIQADQTPEDLDMEDNDIIEAHREQIGGQRGSRRVLSLFVVFVVLGSLLALQPEVKAGEPKPLNVIIVWHQHQPYYYDPVQGIYTRPWVRLHAANNYWKMAYYLSKYPDVHATIDLSGSLIAQLADYMNGAKDIYQIITEKIAKGEPLTVEEKWLMLQAPGGFFDHTIPWNGEPVTDKNGNPIRDFWNRYTELKNKMLQAKAKYANLPLEEQKVAVTNEFTEQDYIDLAVLFNLAWIDYNYIMNTPELKALYEKVDEGGYTREDVRTVLKHQMWLLNHTFEEHEKINLLLGNGNVEVTVVPYAHPIGPILNDFGWEEDFDAHVKKAHELYKKYLGAGKVTPKGGWAAESALNDKTLEILAENGWQWVMTDQLVLQKLGIPYTVENYYKPWVAEFNGRKIYLFPRDHALSDRVGFTYSGMNQYQAVEDFINELLRIQKQNYDGSLVYVITLDGENPWEHYPYDGKLFLETLYKRLTELQRQGLIRTLTPSEYIKLYGDKANKLTPQMMERLDLTGDNVEALLKAQSLGELYDMIGVKEEMQWPESSWIDGTLSTWIGEPQENYGWYWLYLARKALMAQKDKMSQENWEKAYEYLLRAEASDWFWWYGSDQSSGQDYTFDRYFKTYLYEIYRLAGLEPPSYLYGNYFPDGEPYTIRALEGLGEGQVKEYSSMSPLAEGVSVYFDGEGVHFVVKGNLEKFEISIYEKGERVGNTFTLLQERPGELKYSLFPFSRDSVGLLITKHVVYRDGKAEIYAATDYENTEKVGEASVKQVDGGVEIVVPFDYIKTPEDFYFAVSTVKDGELEIITTPIELKLPMEVKGVPIVDVVDPEGDDYGPGTYTYPTDPVFVPHHLDLLRFRILEQTDAYVMEFYFKELGGNVWNAPNGFSLQIIEVYLDFREGGNTSAIKMFPDGPGANVNLDPEHPWDLALRIAGWDYGNLIVLPNGTVYQGELQISADPVNNKIIVKVPKKYIQIDEDYGLWGVVLVGSQDGYGPDKWRPVAVEAEQWRLGGADQQAVIDNLAPRVVDLLVPEGFKPTQEEQLSSYDLEKKILATVLMIPLIEGSGGEEPAETPRETAIPAESPTTTEAPTETQSTTTSQGPTETQTGGGICGPVALLGLVMTPLLLRRRR
modifications: His and Sumo tags; Protein translated from synthetic DNA
Which “hydrolysate of Amylose from potato” value [5] does the source give for B2 here?
The value was “mainly oligosaccharides such as pentasaccharides, hexasaccharides, heptasaccharides, and octasaccharides”.

What about the “optimum pH” value [2] of the same molecule?
The value was 6.6.

What about the “loss of enzyme activity after disposal at pH 5.8 for 4 h” value ([2]; 4° C., 4 h, pH 5.8, then assay at pH 6.6 and 95° C.) of the same molecule?
Its value is 12%.

What about the “pH stability / pH tolerance” value [2] of the same molecule?
Its value is “better pH tolerance; also recorded: very stable”.

And the pullulan hydrolysates [6]?
The pullulan hydrolysates was “most of the pullulan hydrolysates are maltotriose”.

What about the specific enzyme activity [3] of the same molecule?
Its specific enzyme activity is 5.37±0.20 U/mg.

And the specific enzyme activity ([3]; 95° C. and pH 6.6, no metal ions or chemical reagents added)?
The specific enzyme activity was 5.37±0.20 U/mg.

And the Km [3]?
Its Km is 8.78 ± 0.89 mg/mL.

What about the Vmax [3] of the same molecule?
Its Vmax is 5.37±0.20 U/mg.

And the “remaining enzyme activity after heat preservation at 95° C. for 10 h” value ([4]; 10 h)?
The value was “greater than 50%”.

And the optimum temperature [4]?
Its optimum temperature is 95 °C.

Reference: patent US12319941B2, “Thermophilic recombinant type II pullulanase and application thereof” (Jiangnan University, priority 2019, dated 2025)
